Experimental data: the supplement of paper PMC10724198
± gives the standard deviation of the averaged measurements.

test system: Saccharomyces cerevisiae; assay: protein stability index of tFT-peptide fusion (C-terminal peptide) (PSI (0-1 scale)); higher = more stable (slower turnover); conditions: genetic background: wild type; temperature: 30 C
Procedure: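 Multiplexed protein stability (MPS) profiling in S. cerevisiae. Random 12-aa peptides (tFT-X12 library) are fused to the C-terminus of a sfGFP-mCherry tandem fluorescent timer, after mCherry and a GGGS linker. Cells are FACS-sorted into 8 mCherry/sfGFP bins and deep-sequenced. The protein stability index (PSI) is the read-weighted bin average, scaled from 0 (unstable) to 1 (stable). Only peptides with >10 reads are reported; cells were grown at 30 °C in SC-His with glucose.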
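Also: PSI is a weighted mean of sequencing reads over stability bins, variants kept only with over 10 reads, mCherry proximal and sfGFP distal, peptide attached via GGGS linker.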

Sequence | protein stability index
IFRTRISSSLWC | 0.685 ± 0.0083
SCHPDPTRKSPN | 0.7159 ± 0.0035
LPPLPPLPPPPH | 0.686 ± 0.076
NKIVKYSKIRYK | 0.678 ± 0.018
PPSPPTPPPPLP | 0.66 ± 0.0085
LHLDTMPQEKNN | 0.668 ± 0.036
KKEKVKKKKGNN | 0.723 ± 0.013
SNHPPLSFHTGR | 0.734 ± 0.0084
SHLSRSYPGLQL | 0.742 ± 0.027
CAAVPLLASDVR | 0.688 ± 0.011
IFVTLGWARMRY | 0.647 ± 0.065
SRHRAVRAGENW | 0.708 ± 0.045
LRGVGAGPEDVG | 0.694 ± 0.017
AKQVVGASWIVA | 0.607 ± 0.044
ILSASSLFPFVS | 0.693 ± 0.053
GGRHGSSRTGGY | 0.696 ± 0.018
WLVADWLLALFW | 0.627 ± 0.019
VGCVFVASRLVL | 0.627 ± 0.038
RVIHLRKIHYEE | 0.6728 ± 0.005
PPPPPAPLLLLP | 0.78 ± 0.1
VLFGSVSCCLLW | 0.686 ± 0.043
APPPSPLPLPSL | 0.689 ± 0.08
KKEKYIQIRTID | 0.627 ± 0.033
GGWGGEVVLWQA | 0.678 ± 0.073
KYDSPFFNWCSQ | 0.579 ± 0.031

Sequence | protein stability index
SRGGGEGTVGKK | 0.697 ± 0.022
HRGIPMRDLAPN | 0.675 ± 0.02
KKKKNKQKQIET | 0.759 ± 0.07
FIVPLFPVFFSS | 0.621 ± 0.05
QGYWVKAVCASH | 0.624 ± 0.023
SRSGLSPTLPVF | 0.699 ± 0.016
PPPLRPPPPPLP | 0.645 ± 0.021
GVFWRGCGGCGG | 0.685 ± 0.041
GDSSSCSSYVYL | 0.651 ± 0.026
RPPPPLSPPSLV | 0.73 ± 0.0084
GMVRVRSIATHG | 0.597 ± 0.034
EDRTQEIQNIHD | 0.686 ± 0.012
RIGKKKRYNEKS | 0.751 ± 0.062
VRARRSSREVNY | 0.755 ± 0.05
MINYGLARKKAR | 0.733 ± 0.02
ICRFSNRYSCPL | 0.689 ± 0.016
VGGVWGGGWGHW | 0.736 ± 0.021
FHRESAEPSLWS | 0.697 ± 0.11
PPPPPPPPRLTF | 0.698 ± 0.094
ENIENGRPKTEP | 0.644 ± 0.012
RFMDPFSGITAF | 0.716 ± 0.018
LVHHPCNTPRVP | 0.749 ± 0.018
WGGCNTALLTIL | 0.581 ± 0.018
PRRPCDPLRAPH | 0.737 ± 0.15
NKNDINRMVQVS | 0.6754 ± 0.0062

Sequence | protein stability index
HIHRGDRVIGDV | 0.682 ± 0.01
SSFRASVRSRKT | 0.692 ± 0.022
LVDKGSADVLDD | 0.632 ± 0.048
PPLLAPPTPLPQ | 0.674 ± 0.051
HGHLGKFLGARE | 0.689 ± 0.022
PCGGGGRECVRG | 0.808 ± 0.1
SLIRSHKLKLFP | 0.732 ± 0.045
LDYDTTNSMWLS | 0.586 ± 0.09
PPPLPSPPPRLP | 0.693 ± 0.014
FRAPVLCPSYYS | 0.7064 ± 0.0049
ECESGKFSLGGT | 0.68 ± 0.02
NKNNCKLISEKF | 0.721 ± 0.026
SSLSPLLYRPLF | 0.742 ± 0.047
FTCSAIIHVCGL | 0.571 ± 0.035
QFNVLPGQVGLV | 0.635 ± 0.027
KKRMKKKTKNKN | 0.652 ± 0.019
LVLVASVGVGRV | 0.556 ± 0.057
ASTRPFYVSSFG | 0.741 ± 0.13
ACVSGSGLCLFV | 0.694 ± 0.04
DCCTGGKCLEVW | 0.603 ± 0.047
CPLLSCAAFLSS | 0.719 ± 0.025
ATVKRAVPPVFR | 0.7 ± 0.041
RVRWLRGVPGGL | 0.635 ± 0.09
FVRGGWAVMLGG | 0.58 ± 0.049
ARLCLVRTKRHS | 0.684 ± 0.044

Sequence | protein stability index
PSGNGAPRVHRK | 0.65 ± 0.011
PLCVFHYSSDDY | 0.705 ± 0.054
KRNKDYGSFEVT | 0.629 ± 0.029
APPPAPPPPPQT | 0.662 ± 0.0089
EGSGLVVANAYP | 0.667 ± 0.022
GVCSWLVFGGWA | 0.684 ± 0.056
PPPPRHPAAAPP | 0.7668 ± 0.0075
VGGCRVLCVGLG | 0.651 ± 0.06
KKKKEEKNRQES | 0.7 ± 0.077
SPPSPASPPSSP | 0.741 ± 0.075
GAVGLARVSASN | 0.653 ± 0.028
ERRELSAHVYLD | 0.665 ± 0.1
TRICFPRFPPAP | 0.703 ± 0.044
KGSWTLGDGLVW | 0.644 ± 0.013
PPPHVPPPPSSL | 0.711 ± 0.023
IVRENGKDVGVG | 0.506 ± 0.014
CLAFDLGLSPLF | 0.755 ± 0.099
GKPSEMSMREDS | 0.704 ± 0.019
TSPGLPLPLPSP | 0.716 ± 0.0048
GGGWDAVGVGGP | 0.7505 ± 0.0022
PPSPPDLPPHPP | 0.618 ± 0.027
GPKPHREKKSIN | 0.73 ± 0.045
LFVYSSVALSSQ | 0.59301 ± 0.00049
